Experimental data: PMC3985291 (Cell reports, 2014)

Biological target: Keap1 Kelch domain (recombinant) (human, UniProt Q14145 321-609)
Assay: ITC

Chain of Keap1 Kelch domain (recombinant) (Q14145 321-609): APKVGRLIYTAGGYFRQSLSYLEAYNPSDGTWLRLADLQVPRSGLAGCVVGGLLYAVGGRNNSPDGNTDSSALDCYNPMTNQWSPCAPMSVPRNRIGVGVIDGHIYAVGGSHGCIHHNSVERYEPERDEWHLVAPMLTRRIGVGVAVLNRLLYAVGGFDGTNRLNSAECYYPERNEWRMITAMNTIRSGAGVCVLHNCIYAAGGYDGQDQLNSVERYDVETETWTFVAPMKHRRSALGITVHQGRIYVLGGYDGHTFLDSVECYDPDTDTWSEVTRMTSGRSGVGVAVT

B1: Marburg virus VP24 (recombinant, used for ITC) (natural protein)
chain: MAELSTRYNLPANVTENSINLDLNSTARWIKEPSVGGWTVKWGNFVFHIPNTGMTLLHHLKSNFVVPEWQQTRNLFSHLFKNPKSTIIEPFLALRILLGVALKDQELQQSLIPGFRSIVHMLSEWLLLEVTSAIHISPNLLGIYLTSDMFKILMAGVKNFFNKMFTLHVVNDHGKPSSIEIKLTGQQIIITRVNMGFLVEVRRIDIEPCCGETVLSESVVFGLVAEAVLREHSQMEKGQPLNLTQYMNSKIAI
Kd: 158 ± 20 nM
